Measurements taken from paper PMC11707698, “Structure of an ex vivoDrosophila TOM complex determined by single-particle cryoEM” (IUCrJ, 2025).

Target: the molecule itself
Test: cryo-EM structure; single-particle cryoEM of the TOM core complex assembled in the fly retina, FLAG-purified as a whole and reconstituted into non-ionic amphipol; graphene-coated grids; C2 symmetry; 3.3 Å

B1: Drosophila Tom40 subunit fused to a C-terminal FLAG-HA epitope tag (natural protein, D. melanogaster)
chain: AALENPGTVEELHKKCKDIQAITFEGAKIMLNKGLSNHFQVSHTINMSNVVPSGYRFGATYVGTKEFSPTEAFPVLLGDIDPAGNLNANVIHQFSARLRCKFASQIQESKVVASQLTTDYRGSDYTLSLTVANPSIFTNSGVVVGQYLQSVTPALALGSELAYQFGPNVPGRQIAIMSVVGRYTAGSSVWSGTLGQSGLHVCYYQKASDQLQIGAEVETSLRMQESVATLAYQIDLPKANLVFRGGIDSNWQIFGVLEKRLAPLPFTLALSGRMNHVKNNFRLGCGLMIG
notes: Tom40, translocation pore of the TOM complex, Drosophila melanogaster; transgene UAS-Tom40-FLAG.HA (Bloomington stock); residues 55-344 are modelled in the structure; two copies stand in the two-pore core complex; also called Tom40-FLAG-HA; Tom40_FLAG-HA; source: transgenic D. melanogaster retina (GMR-GAL4, UAS-Tom40-FLAG-HA, co-expressed with Myc); solubilised fly head membranes, purified on …
stoichiometry N: 2
